The target in the assay is B10v5xhu225L, c-METxEGFR bispecific SEED antibody reconstituted by Npu DnaE protein trans-splicing. Put plainly: BLI. In general terms: In BLI a coated tip is dipped into the sample, and binding shifts an interference pattern.

The Kd is the concentration at which binding is half-saturated. Read a high Kd as a looser complex. In turn, “EGFR (EGF receptor), recombinant antigen (from UniProt P00533 25-1210)” returned a Kd of 0.22 µM. This counts as sub-micromolar.

For the origin of these results see publication PMC7153837.
